Reference: the supplement of paper PMC10899765

Columns and labels:
Details in all cases: 20 nM; 72 h
MCF10A [1] = assay: percent viability (nuclei count relative to siNT); higher = more viable cells
Experimental: (§1)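 After 72 h, cells were fixed and stained with Hoechst and anti-fibrillarin, and nucleoli per nucleus were counted with CellProfiler. Values are plate-adjusted percent effect for the one-nucleolus and 5+ nucleoli phenotypes, normalised to siNT (0%) and to the positive controls siNOL11 or siKIF11 (100%), as the mean of biological triplicates. Percent viability is the nuclei count relative to siNT.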

MCF10A [2] = assay: 5+ nucleoli phenotype percent effect (relative to siNT 0% and siKIF11 100%); higher = more cells with five or more nucleoli
Experimental: as §1

MCF10A [3] = assay: one-nucleolus phenotype percent effect (relative to siNT 0% and siNOL11 100%); higher = more cells with one nucleolus (ribosome biogenesis inhibition)
Experimental: as §1

| Sequence | percent viability (MCF10A [1]) | 5+ nucleoli phenotype percent effect (MCF10A [2]) | one-nucleolus phenotype percent effect (MCF10A [3]) |
| --- | --- | --- | --- |
| GCUGAACUGGGCUGAGCUGGGC [hsa-miR-4539] | 87% | -5.15% | -1.34% |
| GCUGACAGCAGGGCUGGCCGCU [hsa-miR-4526] | 59.2% | 16.9% | -0.679% |
| GCUGACUCCUAGUCCAGGGCUC [hsa-miR-345-5p] | 100% | 31.9% | -8.97% |
| GCUGAUGAUGAUGGUGCUGAAG [hsa-miR-4502] | 85.3% | 38.7% | -19.2% |
| GCUGCACCGGAGACUGGGUAA [hsa-miR-3130-3p] | 65% | 26.7% | -5.32% |
| GCUGCGCUUGGAUUUCGUCCCC [hsa-miR-191-3p] | 71% | 5.48% | 5.27% |
| GCUGCGGGCUGCGGUCAGGGCG [hsa-miR-4734] | 40.7% | 8.16% | -5.38% |
| GCUGGGAAGGCAAAGGGACGU [hsa-miR-204-3p] | 49.7% | 24.5% | -9.16% |
| GCUGGGAUUACAGGCAUGAGCC [hsa-miR-619-5p] | 50% | 19% | -9.05% |
| GCUGGGCAGGGCUUCUGAGCUCCUU [hsa-miR-612] | 77.6% | -7.01% | 14.9% |
| GCUGGGCGAGGCUGGCA [hsa-miR-4486] | 38.6% | 3.78% | 19.5% |
| GCUGGUCUGCGUGGUGCUCGG [hsa-miR-3663-5p] | 123% | 52.4% | -23.3% |
| GCUGGUGACAUGAGAGGC [hsa-miR-4299] | 42.6% | 34.1% | -5.58% |
| GCUGGUGCAAAAGUAAUGGCGG [hsa-miR-548q] | 30.5% | -16.7% | 46% |
| GCUGGUUUCAUAUGGUGGUUUAGA [hsa-miR-29b-1-5p] | 100% | 38.2% | -17.6% |
| GCUUCUGUAGUGUAGUC [hsa-miR-3182] | 57% | 35.6% | -17.1% |
| GCUUGUCGCUGCGGUGUUGCU [hsa-miR-3655] | 65.9% | -7.75% | 29.1% |
| GGACCCACCCGGCCGGGAAUA [hsa-miR-1180-5p] | 75.2% | 38.4% | -33.8% |
| GGAGAAAUUAUCCUUGGUGUGU [hsa-miR-539-5p] | 55.7% | 17.9% | -14.8% |
| GGAGACUGAUGAGUUCCCGGGA [hsa-miR-873-3p] | 106% | -5.61% | -6.55% |
| GGAGAUGGAGGUUGCAGUG [hsa-miR-1273f] | 62.9% | 1.46% | 20.3% |
| GGAGGAACCUUGGAGCUUCGGC [hsa-miR-3928] | 50% | 45.7% | -14.5% |
| GGAGGCCGGGGUGGGGCGGGGCGG [hsa-miR-6089] | 153% | 53% | -25.7% |
| GGAGGCGCAGGCUCGGAAAGGCG [hsa-miR-3197] | 41.9% | 13.6% | -2.74% |
